In patent US20190248900A1 (Y BIOLOGICS, published 2019):

Columns and labels:
[1] = target: T1, human PD-1 (NM_005018.2) over-expressed on cells (human, UniProt Q15116 25-288); test: flow cytometry on cells over-expressing human PD-1, Geometric Mean
T1 construct: whole, on cells; also called human PD-1 over-expressed on the cell surface; Jurkat cell line highly expressing human PD-1
Description: 0.5 to 1×10⁶ cells per sample were each prepared from the transformation cell pools highly expressing human PD-1, and antibodies were serially diluted at a constant dilution rate and reacted with the prepared cells at 4° C. for 20 minutes. Then, the cells were washed three times with PBS (#LB001-02, Welgene) containing 2% fetal bovine serum and reacted at 4° C. for 20 minutes with an anti-human IgG antibody (#FI-3000, Vectorlabs) conjugated with a FITC (fluorescein isothiocyanate) fluorescent substance. Then, the cells were subjected to the same washing process as above and then suspended in 0.5 ml of PBS containing 2% FBS (#26140-079, Thermo Fisher) with an FACSCanto II flow cytometer (BD Biosciences, USA) as a flow cytometer.

[2] = target: T1, human PD-1 (NM_005018.2) over-expressed …; test: cell-based or functional assay
SLITRK5 = target: T2, SLITRK5 (Homo sapiens (Human), UniProt O94991 41-664); test: ELISA
T2 sequence: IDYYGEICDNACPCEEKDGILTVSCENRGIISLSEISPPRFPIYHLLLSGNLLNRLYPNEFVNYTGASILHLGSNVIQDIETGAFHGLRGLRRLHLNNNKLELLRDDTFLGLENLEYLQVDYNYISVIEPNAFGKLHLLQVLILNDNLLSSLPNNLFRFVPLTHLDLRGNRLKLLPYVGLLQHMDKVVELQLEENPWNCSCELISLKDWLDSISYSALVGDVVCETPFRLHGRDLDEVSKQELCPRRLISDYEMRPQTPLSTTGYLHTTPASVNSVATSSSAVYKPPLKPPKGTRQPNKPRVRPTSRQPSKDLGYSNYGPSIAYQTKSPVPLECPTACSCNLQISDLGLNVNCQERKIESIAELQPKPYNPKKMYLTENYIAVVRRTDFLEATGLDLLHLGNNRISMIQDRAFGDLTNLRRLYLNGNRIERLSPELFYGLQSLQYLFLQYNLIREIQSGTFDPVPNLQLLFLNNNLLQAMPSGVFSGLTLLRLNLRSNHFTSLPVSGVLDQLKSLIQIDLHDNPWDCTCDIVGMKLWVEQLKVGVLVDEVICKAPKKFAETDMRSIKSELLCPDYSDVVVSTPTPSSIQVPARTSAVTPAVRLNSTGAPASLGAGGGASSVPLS

TNFSF8 = target: T3, TNFSF8 (Homo sapiens (Human), UniProt P32971 63-234); test: ELISA
T3 sequence: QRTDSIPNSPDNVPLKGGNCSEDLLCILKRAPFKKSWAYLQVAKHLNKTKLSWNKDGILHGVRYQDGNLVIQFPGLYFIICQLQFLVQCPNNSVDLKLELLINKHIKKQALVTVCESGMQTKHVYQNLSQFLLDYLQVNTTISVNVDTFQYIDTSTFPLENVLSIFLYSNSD

TNFSF9 = TNFSF9 (Homo sapiens (Human), UniProt P41273 50-254); test: ELISA
TNFSF9, sequence (P41273 50-254 limits assumed): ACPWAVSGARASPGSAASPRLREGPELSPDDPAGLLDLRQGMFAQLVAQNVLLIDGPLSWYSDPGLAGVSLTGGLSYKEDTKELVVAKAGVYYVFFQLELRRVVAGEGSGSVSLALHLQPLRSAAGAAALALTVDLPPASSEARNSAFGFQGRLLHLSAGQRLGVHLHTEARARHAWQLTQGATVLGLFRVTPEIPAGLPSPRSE

CD209 = target: T4, CD209 (Homo sapiens (Human), UniProt Q9NNX6 59-404); test: ELISA
T4 sequence: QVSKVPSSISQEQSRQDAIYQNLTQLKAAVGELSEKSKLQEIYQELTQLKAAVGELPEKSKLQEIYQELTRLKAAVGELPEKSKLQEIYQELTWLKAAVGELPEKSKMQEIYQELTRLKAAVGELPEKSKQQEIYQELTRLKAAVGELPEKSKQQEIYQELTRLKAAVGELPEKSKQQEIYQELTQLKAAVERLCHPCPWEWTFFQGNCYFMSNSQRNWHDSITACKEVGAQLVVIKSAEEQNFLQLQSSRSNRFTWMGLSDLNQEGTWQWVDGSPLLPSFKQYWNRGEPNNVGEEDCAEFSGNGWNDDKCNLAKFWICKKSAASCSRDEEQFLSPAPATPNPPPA

DNER = target: T5, DNER (Homo sapiens (Human), UniProt Q8NFT8 35-640); test: ELISA
T5 sequence: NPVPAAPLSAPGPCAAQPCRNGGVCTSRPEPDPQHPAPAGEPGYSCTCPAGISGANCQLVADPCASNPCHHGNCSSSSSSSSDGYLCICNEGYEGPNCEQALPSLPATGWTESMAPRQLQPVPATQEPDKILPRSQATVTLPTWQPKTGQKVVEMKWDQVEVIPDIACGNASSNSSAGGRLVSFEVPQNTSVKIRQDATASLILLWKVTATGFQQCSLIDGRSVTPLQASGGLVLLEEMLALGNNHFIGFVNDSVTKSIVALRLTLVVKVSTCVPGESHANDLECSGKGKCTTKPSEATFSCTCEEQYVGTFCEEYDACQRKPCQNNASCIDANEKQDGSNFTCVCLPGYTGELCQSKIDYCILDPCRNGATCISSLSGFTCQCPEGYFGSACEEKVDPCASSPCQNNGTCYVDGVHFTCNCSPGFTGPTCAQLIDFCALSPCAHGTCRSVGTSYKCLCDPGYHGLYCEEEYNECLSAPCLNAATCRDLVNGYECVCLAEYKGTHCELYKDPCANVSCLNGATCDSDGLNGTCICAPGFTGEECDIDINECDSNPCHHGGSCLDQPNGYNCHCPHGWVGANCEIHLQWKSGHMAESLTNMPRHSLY

SUSD1 = SUSD1 (Homo sapiens (Human), UniProt Q6UWL2 30-721); test: ELISA
SUSD1, sequence (Q6UWL2 30-721 limits assumed): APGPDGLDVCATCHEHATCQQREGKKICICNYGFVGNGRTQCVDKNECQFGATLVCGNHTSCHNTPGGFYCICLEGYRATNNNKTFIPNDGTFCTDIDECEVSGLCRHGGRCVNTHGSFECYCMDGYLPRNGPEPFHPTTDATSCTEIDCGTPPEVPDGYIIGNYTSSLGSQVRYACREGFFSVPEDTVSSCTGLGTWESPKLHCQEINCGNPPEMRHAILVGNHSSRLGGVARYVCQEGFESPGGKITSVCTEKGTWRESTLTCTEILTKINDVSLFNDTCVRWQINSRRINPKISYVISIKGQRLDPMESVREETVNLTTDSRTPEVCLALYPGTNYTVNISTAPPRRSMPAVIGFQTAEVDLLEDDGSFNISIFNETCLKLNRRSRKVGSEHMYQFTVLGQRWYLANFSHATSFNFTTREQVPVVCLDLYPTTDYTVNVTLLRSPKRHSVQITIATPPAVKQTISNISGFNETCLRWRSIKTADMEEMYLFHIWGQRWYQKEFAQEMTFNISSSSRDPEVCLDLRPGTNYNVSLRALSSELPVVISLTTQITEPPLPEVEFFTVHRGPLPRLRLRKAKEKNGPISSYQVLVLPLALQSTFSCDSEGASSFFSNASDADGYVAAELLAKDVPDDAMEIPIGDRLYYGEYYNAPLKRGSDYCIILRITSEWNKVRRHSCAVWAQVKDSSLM

TLR3 = TLR3 (Homo sapiens (Human), UniProt O15455 24-704); test: ELISA
LRRN1 = LRRN1 (Homo sapiens (Human), UniProt Q6UXK5 26-631); test: ELISA
LRRN1, sequence (Q6UXK5 26-631 limits assumed): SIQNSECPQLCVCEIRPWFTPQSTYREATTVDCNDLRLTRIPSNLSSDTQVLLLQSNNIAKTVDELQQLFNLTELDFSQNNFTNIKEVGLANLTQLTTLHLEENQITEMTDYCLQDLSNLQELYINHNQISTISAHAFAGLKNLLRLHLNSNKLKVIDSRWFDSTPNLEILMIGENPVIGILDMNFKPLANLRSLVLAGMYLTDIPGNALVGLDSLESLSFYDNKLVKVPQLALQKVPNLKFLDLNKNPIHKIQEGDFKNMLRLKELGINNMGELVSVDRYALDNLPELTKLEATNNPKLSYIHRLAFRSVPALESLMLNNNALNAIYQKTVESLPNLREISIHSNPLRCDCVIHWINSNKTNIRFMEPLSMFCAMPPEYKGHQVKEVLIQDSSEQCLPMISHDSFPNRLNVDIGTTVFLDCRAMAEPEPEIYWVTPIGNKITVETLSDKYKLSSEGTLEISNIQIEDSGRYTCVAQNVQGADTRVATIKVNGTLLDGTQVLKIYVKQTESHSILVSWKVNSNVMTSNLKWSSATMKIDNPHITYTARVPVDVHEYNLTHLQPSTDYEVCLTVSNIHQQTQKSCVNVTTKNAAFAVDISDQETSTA

NRG4 = target: T6, NRG4 (Homo sapiens (Human), UniProt Q8WWG1 1-62); test: ELISA
T6 sequence: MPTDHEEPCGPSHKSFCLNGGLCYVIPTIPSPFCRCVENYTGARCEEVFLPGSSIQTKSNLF

T1 sequence (Q15116 25-288): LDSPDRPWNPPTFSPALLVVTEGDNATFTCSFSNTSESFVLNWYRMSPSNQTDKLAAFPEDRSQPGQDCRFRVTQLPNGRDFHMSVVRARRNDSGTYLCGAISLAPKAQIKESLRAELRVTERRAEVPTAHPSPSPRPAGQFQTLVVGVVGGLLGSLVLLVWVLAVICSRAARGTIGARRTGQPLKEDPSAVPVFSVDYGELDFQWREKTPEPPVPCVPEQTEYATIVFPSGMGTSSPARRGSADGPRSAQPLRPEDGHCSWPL

B1: PD1-41C9 (antibody, V domains shown)
VH: QMQLVESGGGVVQPGRSLRLSCAASGFTFSSYAMHWVRQAPGKGLEWVAVISYDGSNKYYADSVKGRFTISRDNSKNTLYLQMNRLRSEDTAVYYCTTTTFDSWGQGTLITVSS
VL: DIVMTQTPLSLPVTPGEAASISCRSSQSLLDSEDGNTYLDWYLQKPGQSPQLLIYTLSHRASGVPDRFSGSGSGTDFTLKISRVAAEDVGLYYCLQRMGFPYTFGQGTKLDIK
notes: scFv-phage in the screening ELISA; whole IgG in the other assays
[1]
  EC50: 5.89 nM
[2]
  EC50: 3.57 nM
SLITRK5
  binding result: no binding (tested: 1 ug/ml)
TNFSF8
  binding result: no binding (tested: 1 ug/ml)
TNFSF9
  binding result: no binding (tested: 1 ug/ml)
CD209
  binding result: no binding (tested: 1 ug/ml)
DNER
  binding result: no binding (tested: 1 ug/ml)
SUSD1
  binding result: no binding (tested: 1 ug/ml)
TLR3
  binding result: no binding (tested: 1 ug/ml)
LRRN1
  binding result: no binding (tested: 1 ug/ml)
NRG4
  binding result: no binding (tested: 1 ug/ml)

B2: PD1-49A2 (antibody, V domains shown)
VH: QVQLVESGGGVVQPGRSLRLSCAASGFTFSSYAMHWVRQAPGKGLEWVAVISYDGSNKYYADSVKGRFTISRDNPKNTLYLQMNSLRAEDTAVYYCTTTTFDSWGRGTLVTVSS
VL: DIVMTQSPLSLPVTPGEPASISCRSSQSLFDSDDGNTYLDWYLQKPGQSPQLLIYTLSHRASGVPDRFSGSGSGTDFTLKISRVEAEDVGIYYCLQRMGFPYTFGQGTKVEIK
notes: scFv-phage in the screening ELISA; whole IgG in the other assays; also called Parent 49A2
[1]
  EC50: 5.07 nM
[2]
  EC50: 2.05 nM
SLITRK5
  binding result: no binding (tested: 1 ug/ml)
TNFSF8
  binding result: no binding (tested: 1 ug/ml)
TNFSF9
  binding result: no binding (tested: 1 ug/ml)
CD209
  binding result: no binding (tested: 1 ug/ml)
DNER
  binding result: no binding (tested: 1 ug/ml)
SUSD1
  binding result: no binding (tested: 1 ug/ml)
TLR3
  binding result: no binding (tested: 1 ug/ml)
LRRN1
  binding result: no binding (tested: 1 ug/ml)
NRG4
  binding result: no binding (tested: 1 ug/ml)

B3: PD1-45D6 (antibody, V domains shown)
VH: QVQLVESGGGVVQPGRSLRLSCAASGFTFSSYAMHWVRQVPGKGLEWVAVISYDGNDKYYADSVKGRFTISRDNSKNTLYLQMNSLRAEDTAVYYCVPTTFEYWGQGSQVTVSS
VL: DIVMTQTPLSLPVTPGEAASISCRSSQSLLDSDDGKTYLDWYLQKPGQSPQLLIYTLSYRASGVPDRFSGSGSGTEFNLRISRVEAEDVGIYYCMQRVEFPFTFGQGTKLDIK
notes: as for B1
[1]
  EC50: 4.84 nM
[2]
  EC50: 1.29 nM
SLITRK5
  binding result: no binding (tested: 1 ug/ml)
TNFSF8
  binding result: no binding (tested: 1 ug/ml)
TNFSF9
  binding result: no binding (tested: 1 ug/ml)
CD209
  binding result: no binding (tested: 1 ug/ml)
DNER
  binding result: no binding (tested: 1 ug/ml)
SUSD1
  binding result: no binding (tested: 1 ug/ml)
TLR3
  binding result: no binding (tested: 1 ug/ml)
LRRN1
  binding result: no binding (tested: 1 ug/ml)
NRG4
  binding result: no binding (tested: 1 ug/ml)
